The text below walks through data of the supplement of paper PMC5998384.

The test system of data set [1] is HeLa Kyoto. Briefly: melting temperature (median over replicates), in situ; higher = more thermally stable.
Data set [2] relates to HeLa Kyoto. Briefly: thermal stability score vs G1/S (z-score of summed log2 fold changes over temperatures); higher = more thermally stable than in G1/S.
The mark [3] stands for this setting: cell cycle stage: early G1 (4.5 h after nocodazole release).
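Wherever melting temperature (median over replicates), in situ is given: HeLa Kyoto cells synchronized by double thymidine or nocodazole block, proteins quantified by TMT10plex mass spectrometry, three independent biological replicates.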
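Wherever thermal stability score vs G1/S (z-score of summed log2 fold changes over temperatures) is given: synchronized HeLa Kyoto cells, proteins quantified by TMT10plex mass spectrometry, three biological replicates, mitosis taken 0.5 h after nocodazole release, G1/S directly after double thymidine block.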

Consider “MAAACGPGAAGYCLLLGLHLFLLTAGPALGWNDPDRMLLRDVKALTLHYDRYTTSRRLDPIPQLKCVGGTAGCDSYTPKVIQCQNKGWDGYDVQWECKTDLDIAYKFGKTVVSCEGYESSEDQYVLRGSCGLEYNLDYTELGLQKLKESGKQHGFASFSDYYYKWSSADSCNMSGLITIVVLLGIAFVVYKLFLSDGQYSPPPYSEYPPFSHRYQRFTNSAGPPPPGFKSEFTGPQNTGHGATSGFGSAFTGQQGYENSGPGFWTGLGTGGILGYLFGSNRAATPFSDSWYYPSYPPSYPGTWNRAYSPLHGGSGSYSVCSNSDTKTRTASGYGGTRRR [SARAF]”, for which the figures for the melting temperature in the data set on HeLa Kyoto [1] (cell cycle stage: G1/S) and in the data set with HeLa Kyoto [1] (cell cycle stage: mitosis) were 52 °C and 53.3 °C, respectively. Moreover, the thermal stability score with HeLa Kyoto [2] (setting [3]) is -0.125; in the data set with HeLa Kyoto [2] (cell cycle stage: mitosis), 0.434.

As to “MAARRRRSTGGGRARALNESKRVNNGNTAPEDSSPAKKTRRCQRQESKKMPVAGGKANKDRTEDKQDGMPGRSWASKRVSESVKALLLKGKAPVDPECTAKVGKAHVYCEGNDVYDVMLNQTNLQFNNNKYYLIQLLEDDAQRNFSVWMRWGRVGKMGQHSLVACSGNLNKAKEIFQKKFLDKTKNNWEDREKFEKVPGKYDMLQMDYATNTQDEEETKKEESLKSPLKPESQLDLRVQELIKLICNVQAMEEMMMEMKYNTKKAPLGKLTVAQIKAGYQSLKKIEDCIRAGQHGRALMEACNEFYTRIPHDFGLRTPPLIRTQKELSEKIQLLEALGDIEIAIKLVKTELQSPEHPLDQHYRNLHCALRPLDHESYEFKVISQYLQSTHAPTHSDYTMTLLDLFEVEKDGEKEAFREDLHNRMLLWHGSRMSNWVGILSHGLRIAPPEAPITGYMFGKGIYFADMSSKSANYCFASRLKNTGLLLLSEVALGQCNELLEANPKAEGLLQGKHSTKGLGKMAPSSAHFVTLNGSTVPLGPASDTGILNPDGYTLNYNEYIVYNPNQVRMRYLLKVQFNFLQLW [PARP2]”, the melting temperature with HeLa Kyoto [1] (cell cycle stage: G1/S) amounted to 47.1 °C; with HeLa Kyoto [1] (cell cycle stage: mitosis), 50.5 °C. For the same sequence, the thermal stability score with HeLa Kyoto [2] (setting [3]) was found to be 1.04; in the data set on HeLa Kyoto [2] (cell cycle stage: mitosis), 1.69.

In the data set with HeLa Kyoto [1] (cell cycle stage: mitosis), “MAASGPGCRSWCLCPEVPSATFFTALLSLLVSGPRLFLLQQPLAPSGLTLKSEALRNWQVYRLVTYIFVYENPISLLCGAIIIWRFAGNFERTVGTVRHCFFTVIFAIFSAIIFLSFEAVSSLSKLGEVEDARGFTPVAFAMLGVTTVRSRMRRALVFGMVVPSVLVPWLLLGASWLIPQTSFLSNVCGLSIGLAYGLTYCYSIDLSERVALKLDQTFPFSLMRRISVFKYVSGSSAERRAAQSRKLNPVPGSYPTQSCHPHLSPSHPVSQTQHASGQKLASWPSCTPGHMPTLPPYQPASGLCYVQNHFGPNPTSSSVYPASAGTSLGIQPPTPVNSPGTVYSGALGTPGAAGSKESSRVPMP [RHBDD2]” had a melting temperature of 52.5 °C. Moreover, the thermal stability score in the data set with HeLa Kyoto [2] (setting [3]) was -1.05; with HeLa Kyoto [2] (cell cycle stage: mitosis), -1.48.

In the case of “MAFLGLFSLLVLQSMATGATFPEEAIADLSVNMYNRLRATGEDENILFSPLSIALAMGMMELGAQGSTQKEIRHSMGYDSLKNGEEFSFLKEFSNMVTAKESQYVMKIANSLFVQNGFHVNEEFLQMMKKYFNAAVNHVDFSQNVAVANYINKWVENNTNNLVKDLVSPRDFDAATYLALINAVYFKGNWKSQFRPENTRTFSFTKDDESEVQIPMMYQQGEFYYGEFSDGSNEAGGIYQVLEIPYEGDEISMMLVLSRQEVPLATLEPLVKAQLVEEWANSVKKQKVEVYLPRFTVEQEIDLKDVLKALGITEIFIKDANLTGLSDNKEIFLSKAIHKSFLEVNEEGSEAAAVSGMIAISRMAVLYPQVIVDHPFFFLIRNRRTGTILFMGRVMHPETMNTSGHDFEEL [SERPINI1]”, the melting temperature in the data set on HeLa Kyoto [1] (cell cycle stage: G1/S) stood at 57 °C; in the data set with HeLa Kyoto [1] (cell cycle stage: mitosis), 57.8 °C. For the same sequence, the thermal stability score with HeLa Kyoto [2] (setting [3]) is 0.548; with HeLa Kyoto [2] (cell cycle stage: mitosis) it was 1.27.

In the data set on HeLa Kyoto [1] (cell cycle stage: mitosis), “MAMWNRPCQRLPQQPLVAEPTAEGEPHLPTGRELTEANRFAYAALCGISLSQLFPEPEHSSFCTEFMAGLVQWLELSEAVLPTMTAFASGLGGEGADVFVQILLKDPILKDDPTVITQDLLSFSLKDGHYDARARVLVCHMTSLLQVPLEELDVLEEMFLESLKEIKEEESEMAEASRKKKENRRKWKRYLLIGLATVGGGTVIGVTGGLAAPLVAAGAATIIGSAGAAALGSAAGIAIMTSLFGAAGAGLTGYKMKKRVGAIEEFTFLPLTEGRQLHITIAVTGWLASGKYRTFSAPWAALAHSREQYCLAWEAKYLMELGNALETILSGLANMVAQEALKYTVLSGIVAALTWPASLLSVANVIDNPWGVCLHRSAEVGKHLAHILLSRQQGRRPVTLIGFSLGARVIYFCLQEMAQEKDCQGIIEDVILLGAPVEGEAKHWEPFRKVVSGRIINGYCRGDWLLSFVYRTSSVQLRVAGLQPVLLQDRRVENVDLTSVVSGHLDYAKQMDAILKAVGIRTKPGWDEKGLLLAPGCLPSEEPRQAAAAASSGETPHQVGQTQGPISGDTSKLAMSTDPSQAQVPVGLDQSEGASLPAAASPERPPICSHGMDPNPLGCPDCACKTQGPSTGLD [TMCO4]” came in with a melting temperature of 53.7 °C. Besides, the values for the thermal stability score with HeLa Kyoto [2] (setting [3]) and in the data set with HeLa Kyoto [2] (cell cycle stage: mitosis) were -0.364 and 0.512, respectively.
